These results are taken from patent US20220348651A1 (Novartis, published 2022).

What is called EC50 is the concentration giving half of the maximal effect.

For test [1], the target named is T1, ENTPD3 of H520 cells (UniProt O75355 1-529, limits assumed).
T1 construct: whole, on cells
T1 sequence (looked up): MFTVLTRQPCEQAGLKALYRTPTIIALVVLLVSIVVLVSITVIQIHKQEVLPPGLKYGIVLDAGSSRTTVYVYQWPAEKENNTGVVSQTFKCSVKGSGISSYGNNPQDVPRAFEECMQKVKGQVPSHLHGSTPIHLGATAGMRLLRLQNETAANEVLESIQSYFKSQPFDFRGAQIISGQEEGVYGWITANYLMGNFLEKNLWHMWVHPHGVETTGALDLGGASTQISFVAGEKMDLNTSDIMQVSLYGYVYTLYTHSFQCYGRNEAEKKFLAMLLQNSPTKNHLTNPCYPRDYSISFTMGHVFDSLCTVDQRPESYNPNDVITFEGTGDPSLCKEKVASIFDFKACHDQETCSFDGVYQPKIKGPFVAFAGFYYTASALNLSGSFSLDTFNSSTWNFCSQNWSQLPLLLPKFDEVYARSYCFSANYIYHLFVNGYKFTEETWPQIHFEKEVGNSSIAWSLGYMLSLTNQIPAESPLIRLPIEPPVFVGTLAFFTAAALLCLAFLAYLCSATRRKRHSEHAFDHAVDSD
Briefly: flow cytometry, H520 cells. Background: In flow cytometry, cells or beads pass a laser one at a time.

The target in test [2] is T2, ENTPD8 of H520 cells (UniProt Q5MY95 1-495, limits assumed).
T2 construct: whole, on cells
T2 sequence (looked up): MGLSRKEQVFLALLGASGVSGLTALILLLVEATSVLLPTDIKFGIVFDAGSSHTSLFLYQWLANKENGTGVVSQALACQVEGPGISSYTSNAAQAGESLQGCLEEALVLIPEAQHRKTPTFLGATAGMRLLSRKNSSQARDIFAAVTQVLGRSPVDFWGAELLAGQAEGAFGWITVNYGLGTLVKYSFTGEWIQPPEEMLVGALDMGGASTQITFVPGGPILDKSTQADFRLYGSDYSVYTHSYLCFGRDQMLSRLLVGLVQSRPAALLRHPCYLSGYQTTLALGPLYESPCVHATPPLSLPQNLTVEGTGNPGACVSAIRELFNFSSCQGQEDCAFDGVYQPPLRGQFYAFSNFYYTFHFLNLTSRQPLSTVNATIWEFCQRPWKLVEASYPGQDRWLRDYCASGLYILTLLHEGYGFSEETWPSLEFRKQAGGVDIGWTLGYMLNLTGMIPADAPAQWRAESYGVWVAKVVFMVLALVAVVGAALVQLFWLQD
Briefly: flow cytometry, H520 cells.

The target in test [3] is T3, cyno ENTPD2 expressed on NIH/3T3 cells (cynomolgus macaque, UniProt Q9Y5L3 1-495 (human entry)).
T3 construct: also called NIH3T3 cynoENTPD2; Cyno ENTPD2 NIH/3T3
T3 chain: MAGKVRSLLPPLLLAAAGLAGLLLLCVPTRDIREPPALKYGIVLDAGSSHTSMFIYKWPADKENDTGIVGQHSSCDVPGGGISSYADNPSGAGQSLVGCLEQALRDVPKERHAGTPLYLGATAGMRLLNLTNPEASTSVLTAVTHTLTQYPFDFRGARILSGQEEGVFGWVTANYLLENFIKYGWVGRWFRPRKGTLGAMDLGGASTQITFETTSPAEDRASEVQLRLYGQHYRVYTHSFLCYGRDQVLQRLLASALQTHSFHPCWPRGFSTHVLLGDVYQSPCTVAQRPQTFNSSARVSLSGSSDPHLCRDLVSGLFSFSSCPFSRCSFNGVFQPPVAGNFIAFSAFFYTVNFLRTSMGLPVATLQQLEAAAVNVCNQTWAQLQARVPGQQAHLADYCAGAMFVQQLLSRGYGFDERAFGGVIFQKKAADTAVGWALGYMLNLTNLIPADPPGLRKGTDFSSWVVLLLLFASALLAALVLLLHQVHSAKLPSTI
Briefly: flow cytometry, NIH3T3 cyno ENTPD2 cells.

Test [4] has as its target T4, Human ENTPD1 (NP_001767) expressed on NIH/3T3 cells (human, UniProt P49961 1-510).
T4 construct: also called NIH/3T3-ENTPD1; CD39
T4 sequence: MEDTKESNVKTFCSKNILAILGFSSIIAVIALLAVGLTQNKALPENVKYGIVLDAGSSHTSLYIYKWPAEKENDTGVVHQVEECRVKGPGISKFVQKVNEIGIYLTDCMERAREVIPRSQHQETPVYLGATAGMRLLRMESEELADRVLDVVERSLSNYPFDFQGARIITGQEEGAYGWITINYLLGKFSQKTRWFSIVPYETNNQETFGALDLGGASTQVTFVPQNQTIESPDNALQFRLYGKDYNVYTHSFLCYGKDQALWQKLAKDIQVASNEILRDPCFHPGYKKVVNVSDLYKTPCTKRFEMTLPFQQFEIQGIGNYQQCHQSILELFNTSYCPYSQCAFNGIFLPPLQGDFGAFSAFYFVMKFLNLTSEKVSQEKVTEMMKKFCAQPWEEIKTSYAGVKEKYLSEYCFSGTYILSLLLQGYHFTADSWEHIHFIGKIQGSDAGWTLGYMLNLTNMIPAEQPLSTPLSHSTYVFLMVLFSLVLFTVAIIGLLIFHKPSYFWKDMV
Kind of test: flow cytometry, NIH/3T3-ENTPD1 cells.

B1: ANTI-HUMAN ENTPD2 MAB8 (antibody, human IgG1, lambda, V domains shown)
VH: QVQLQQSGPGLVKPSQTLSLTCAISGDSVSSSSAAWNWIRQSPSRGLEWLGRIYYRSKWYNDYAVSVKSRITINPDTSKNQFSLQLNSVTPEDTAVYYCARGSYVTSSYEGFDYWGQGTLVTVSS
VL: SYELTQPLSVSVALGQTARITCSGDNLPEKYAYWYQQKPGQAPVLVIYDDNKRPSGIPERFSGSNSGNTATLTISRAQAGDEADYYCQSYGKWGWTWVFGGGTKLTVLG
notes: also called Anti-ENTPD2 mAb8
Take B1: the binding result in test [1] and in test [2] was “no binding (tested: 50 nM)” throughout. In test [3], this molecule showed an EC50 of 2.1 nM.

B2: ANTI-HUMAN ENTPD2 MAB4 (antibody, human IgG1, kappa, V domains shown)
VH: QIQLQESGPGLVKPSQTLSLTCTVSGYSITSGYYWNWIRQHPGKGLEWIGYISYDADNNYNPSLKNRVTISRDTSKNQFSLKLSSVTAADTAVYYCAGGYYRYGLGSYRGSYYYVMDYWGQGTTVTVSS
VL: ETVLTQSPATLSVSPGERATISCKASQSVDYEGHSYMNWYQQKPGQAPRLLIYAASNLESGIPARFSGSGSGTDFTLTISSVEPEDAATYYCQQSNEDPPTFGGGTKLEIKR
notes: humanized and optimized from mAb16; human IgG1, kappa; also called Anti-ENTPD2 mAb4
On to B2, for which the binding result in test [1], in test [2] and in test [4] was “no binding (tested: 50 nM)” throughout. The same molecule registered an EC50 in test [3] of 6.1 nM.

B3: ANTI-HUMAN ENTPD2 MAB6 (antibody, human IgG1, kappa, V domains shown)
VH: QVQLQESGPGLVKPSQTLSLTCTVSGYSITSGYYWNWIRQHPGKGLEWMGYISYDADNNYNPSLKNRITISRDTSKNQFSLKLSSVTAADTAVYYCAGGYYRYGLGSYSGSYYYVMDYWGQGTTVTVSS
VL: DTQMTQSPSSLSVSVGDRATITCKASQSVDYEGHSYMNWYQQKPGKAPKLLIYAASNLESGVPSRFSGSGSGTDFTLTISSVQPEDFATYYCQQSNEDPPTFGGGTKLEIKR
notes: humanized and optimized from mAb16; human IgG1, kappa; also called Anti-ENTPD2 mAb6
Take B3: the binding result in test [1], in test [2] and in test [4] was “no binding (tested: 50 nM)” each time. Also, the EC50 in test [3] was 7 nM.

B4: ANTI-HUMAN ENTPD2 MAB5 (antibody, human IgG1, kappa, V domains shown)
VH: QIQLQESGPGLVKPSQTLSLTCTVSGYSITSGYYWNWIRQHPGKGLEWIGYISYDADNNYNPSLKNRVTISRDTSKNQFSLKLSSVTAADTAVYYCAGGYYRYGLGSYRGSYYYVMDYWGQGTTVTVSS
VL: ETVLTQSPATLSVSPGERATISCKASQSVDYDGNSYMNWYQQKPGQAPRLLIYAASNLESGIPARFSGSGSGTDFTLTISSVEPEDAATYYCQQSNEDPPTFGGGTKLEIKR
notes: humanized and optimized from mAb16; human IgG1, kappa; also called Anti-ENTPD2 mAb5
As for B4, the binding result in test [1], in test [2] and in test [4] was “no binding (tested: 50 nM)” throughout. Moreover, the EC50 in test [3] was determined as 5.2 nM.

B5: ANTI-HUMAN ENTPD2 MAB9 (antibody, human IgG1, lambda, V domains shown)
VH: QVQLVQSGAEVKKPGSSVKVSCKASGGTFDSYAVSWVRQAPGQGLEWMGRIVPWLGHTQYAQKFQGRVTITADESTSTAYMELSSLRSEDTAVYYCARESPGYRYSFDVWDQGTLVTVSS
VL: SYELTQPLSVSVALGQTARITCSGDAIGEKYVYWYQQKPGQAPVLVIYDDNNRPSGIPERFSGSNSGNTATLTISRAQAGDEADYYCASYDLQQARWVFGGGTKLTVLG
notes: also called Anti-ENTPD2 mAb9
In the case of B5, the binding result in test [1], in test [2] and in test [4] was “no binding (tested: 50 nM)” in each case. For the same molecule, the midpoint of the response in test [3], the EC50, lay at 1.3 nM.

B6: ANTI-HUMAN ENTPD2 MAB10 (antibody, human IgG1, lambda, V domains shown)
VH: QVQLVQSGAEVKKPGSSVKVSCKASGGTFDSYAVSWVRQAPGQGLEWMGRIVPWLGFTRYAQKFQGRVTITADESTSTAYMELSSLRSEDTAVYYCARESPGYRYSFDVWDQGTLVTVSS
VL: SYELTQPLSVSVALGQTARITCSGDAIGEKYVYWYQQKPGQAPVLVIYDDNNRPSGIPERFSGSNSGNTATLTISRAQAGDEADYYCASYDLQQARWVFGGGTKLTVLG
notes: also called Anti-ENTPD2 mAb10
Regarding B6, the binding result in test [1], in test [2] and in test [4] was “no binding (tested: 50 nM)” throughout. Moreover, in test [3], the EC50 stood at 1.7 nM.

B7: ANTI-HUMAN ENTPD2 MAB2 (antibody, human IgG1, kappa)
heavy: not shown
light: EIVLTQSPATLSASPGERITLSCSASSSVSYIHWYQQKPGQAPRLLIYSTSNLASGIPARFSGSGSGTFYTLTISSVEPEDAAVYYCHQWSSYPWTFGGGTKLEIKRTVAAPSVFIFPPSDEQLKSGTASVVCLLNNFYPREAKVQWKVDNALQSGNSQESVTEQDSKDSTYSLSSTLTLSKADYEKHKVYACEVTHQGLSSPVTKSFNRGEC
notes: humanized from mAb17; human IgG1, kappa; also called Anti-ENTPD2 mAb2
Turning to B7, the binding result in test [1], in test [2] and in test [4] was “no binding (tested: 50 nM)” each time. This molecule also came in with an EC50 in test [3] of 4.2 nM.

B8: ANTI-HUMAN ENTPD2 MAB7 (antibody, human IgG1, kappa)
heavy: not shown
light: EIVLTQSPATLSASPGEEITLSCSASSSVSYIHWYQQKPGQAPRLLIYSTSNLASGIPARFSGSGSGTFYTLTISSVEPEDAAVYYCHQWSSYPWTFGGGTKLEIKRTVAAPSVFIFPPSDEQLKSGTASVVCLLNNFYPREAKVQWKVDNALQSGNSQESVTEQDSKDSTYSLSSTLTLSKADYEKHKVYACEVTHQGLSSPVTKSFNRGEC
notes: humanized from mAb17; human IgG1, kappa; also called Anti-ENTPD2 mAb7
For B8, the binding result in test [1], in test [2] and in test [4] was “no binding (tested: 50 nM)” each time. In test [3], a half-maximal effect (EC50) was put at 0.8 nM.

B9: ANTI-HUMAN ENTPD2 MAB3 (antibody, human IgG1, kappa, V domains shown)
VH: QVQLVQSGAEVVKPGASVKISCKASGYTFTDYNMDWVKQAPGQRLEWIGDINPKYDISTYNQQFKGKATITVDTSASTAYMELSSLRSEDTAVYYCARRGFFLYYGINYYYFDVWGQGTLVTVSS
VL: EIVLTQSPATLSASPGERITLSCSASSSVSYIHWYQQKPGQAPRLLIYSTSNLASGIPARFSGSGSGTFYTLTISSVEPEDAAVYYCHQWSSYPWTFGGGTKLEIKR
notes: humanized from mAb17; human IgG1, kappa; also called Anti-ENTPD2 mAb3
B9: the binding result in test [1], in test [2] and in test [4] was “no binding (tested: 50 nM)” each time. In test [3], this molecule came in with an EC50 of 5.4 nM.
